One may read the Kd as the constant that tells how readily two partners part at equilibrium.

Experiment [1] addresses T1, chemokine-like receptor 1 (CMKLR1) (UniProt Q99788 1-373).
T1 sequence (looked up): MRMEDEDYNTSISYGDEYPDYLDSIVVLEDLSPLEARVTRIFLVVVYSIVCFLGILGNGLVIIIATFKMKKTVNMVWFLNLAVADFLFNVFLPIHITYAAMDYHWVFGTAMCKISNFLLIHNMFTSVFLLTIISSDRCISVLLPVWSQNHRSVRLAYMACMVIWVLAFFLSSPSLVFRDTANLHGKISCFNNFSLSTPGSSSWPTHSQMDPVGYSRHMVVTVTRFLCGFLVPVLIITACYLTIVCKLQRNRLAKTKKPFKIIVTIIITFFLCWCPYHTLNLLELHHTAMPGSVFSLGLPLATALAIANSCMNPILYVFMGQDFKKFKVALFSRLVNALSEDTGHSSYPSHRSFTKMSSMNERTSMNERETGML
In words: cell-based or functional assay.

In experiment [2] the target is T2, recombinant human GST-MDM2 (human, UniProt Q00987 1-491).
T2 construct: source: recombinant
The experiment is described as follows: fluorescence polarisation. The note with it: both partners purified.

[ ]: non-standard residue; d: D form. sulfo‑Cy5 = sulfo-cyanine 5 dye; Cit = NC(=O)NCCC[C@H](N)C(=O)O; Pra = C#CC[C@H](N)C(=O)O; (EG)3 = spacer

T2 sequence (Q00987 whole entry): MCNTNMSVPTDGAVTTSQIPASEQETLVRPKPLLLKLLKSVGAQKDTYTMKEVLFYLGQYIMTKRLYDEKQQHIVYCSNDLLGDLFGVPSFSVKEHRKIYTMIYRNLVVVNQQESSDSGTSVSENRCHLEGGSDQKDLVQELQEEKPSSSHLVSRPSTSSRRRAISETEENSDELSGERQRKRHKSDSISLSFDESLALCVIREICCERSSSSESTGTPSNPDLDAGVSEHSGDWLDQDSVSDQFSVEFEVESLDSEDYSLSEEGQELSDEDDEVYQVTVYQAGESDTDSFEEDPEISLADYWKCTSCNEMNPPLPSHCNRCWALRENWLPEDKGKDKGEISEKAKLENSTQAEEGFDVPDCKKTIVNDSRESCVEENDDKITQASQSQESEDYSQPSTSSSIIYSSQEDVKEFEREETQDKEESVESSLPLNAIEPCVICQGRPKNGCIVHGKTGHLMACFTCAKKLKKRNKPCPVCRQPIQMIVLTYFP

B1: Cy5-PMIγ-cC9 (peptide)
chain: {sulfo‑Cy5-(EG)3}-[dD][dW][dW][dP][dL][dA][dF][dE][dA][dL][dL][dR]GEV[Cit]-{(EG)3-Pra-NH2}
modifications: not fully specified (bridges); also: CuAAC triazole link from Pra to azidolysine of the cC9 chain
For B1, the “Ca2+ flux assay, EC50” value in experiment [1] stood at 185 nM. Further, the Kd in experiment [2] was 90 nM.

These data come from PMC12814185, “Receptor-Mediated Shuttling of a D‑Amino Acid Peptide Achieves High Nanomolar Cytosolic Concentrations” (Journal of the American Chemical Society, 2025).
